Results published in paper doi:10.1101/2023.08.09.551721 (bioRxiv, 2023).

Target: histone H4 (in the nucleosome) (Xenopus laevis, UniProt P62799)
Assay: cryo-EM structure

B1: DDM1-HELLS chimeric protein (DDM1^HELLS) (enzyme)
chain: MVSLRSRKVIPASEMVSDGKTEKDASGDSPTSVLNEEENCEEKSVTVVEEEILLAKNGDSSLISEAMAQEEEQLLKLREDEEKANNAGSAVAPNLNETQFTKLDELLTQTQLYSEFLLEKMEDITINGIESESQKAEPEKTGRGRKRKAASQYNNTKAKRAVAAMISRSKEDGETINSDLTEEETVIKLQNELCPLLTGGQLKSYQLKGVKWLISLWQNGLNGILADQMGLGKTIQTIGFLSHLKGNGLDGPYLVIAPLSTLSNWFNEIARFTPSINAIIYHGDKNQRDELRRKHMPKTVGPKFPIVITSYEVAMNDAKRILRHYPWKYVVIDEGHRLKNHKCKLLRELKHLKMDNKLLLTGTPLQNNLSELWSLLNFILPDIFTSHDEFESWFDFSEKNKNEATKEEEEKRRAQVVSKLHGILRPFILRRMKCDVELSLPRKKEIIMYATMTDHQKKFQEHLVNNTLEAHLGENAIRGIELSPTGRPKRRTRKSINYSKIDDFPNELEKLISQIQPEVDRERAVVEVNIPVEQGWKGKLNNLVIQLRKNCNHPDLLQGQIDGSYLYPPVEEIVGQCGKFRLLERLLVRLFANNHKVLIFSQWTKLLDIMDYYFSEKGFEVCRIDGSVKLDERRRQIKDFSDEKSSCSIFLLSTRAGGLGINLTAADTCILYDSDWNPQMDLQAMDRCHRIGQTKPVHVYRLSTAQSIETRVLKRAYSKLKLEHVVIGQGQFHQERAKSSTPLEEEDILALLKEDETAEDKLIQTDISDADLDRLLDRSDLTITAPGETQAAEAFPVKGPGWEVVLPSSGGMLSSLNS
binding result: binds
